Experimental data from patent US7528244.

Target: T1, caspase-3, P42574
T1 chain: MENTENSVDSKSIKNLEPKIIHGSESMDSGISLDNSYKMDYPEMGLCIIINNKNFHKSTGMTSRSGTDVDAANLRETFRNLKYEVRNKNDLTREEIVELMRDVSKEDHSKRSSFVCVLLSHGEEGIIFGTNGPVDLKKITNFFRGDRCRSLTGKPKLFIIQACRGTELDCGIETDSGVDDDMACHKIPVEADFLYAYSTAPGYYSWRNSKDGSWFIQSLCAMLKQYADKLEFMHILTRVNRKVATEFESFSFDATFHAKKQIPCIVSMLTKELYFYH

B1: caspase-8 (217-479) (protein)
chain: SESQTLDKVYQMKSKPRGYCLIINNHNFAKAREKVPKLHSIRDRNGTHLDAGALTTTFEELHFEIKPHDDCTVEQIYEILKIYQLMDHSNMDCFICCILSHGDKGIIYGTDGQEAPIYELTSQFTGLKCPSLAGKPKVFFIQACQGDNYQKGIPVETDSEEQPYLEMDLSSPQTRYIPDEADFLLGMATVNNCVSYRNPAEGTWYIQSLCQSLRERCPRGDDILTILTEVNYEVSNKDDKKNMGKQMPQPTFTLRKKLVFPSD
processing of 35S-labeled caspase-3 precursor by in vitro translated protein: In vitro translated Casper (192-480) could not process caspase-3, whereas in vitro translated caspase-8 (217-479) could
